Legend:
Details in all cases: both partners purified
[1] = target: T1, Human Aβ(1–42)-HiLyte^TM-Fluor555 (human, UniProt P05067 672-713, HiLyte^TM-Fluor555 dye covalently bound to ASP1 (NH2-terminus amino acid)); experiment: other fluorescence titration; competition: 10 nM Aβ(1–42) HiLyte-Fluor555 preincubated 15 min with rising His6, then 5 nM calbindin-D28k added; attenuation of the maximum fluorescence increase; 50 mM HEPES, 100 mM KCl, 50 µM CaCl2, pH 7.05, 24–25 °C
T1 construct: Amyloid β peptide Aβ(1–42), human, cut product of the amyloid precursor protein; numbers count on: the Aβ peptide; source: bought: AnaSpec

[2] = target: T1, Human Aβ(1–42)-HiLyte^TM-Fluor555; experiment: other fluorescence titration; His6 added to 10 nM Aβ(1–42) HiLyte-Fluor555 in solution; increase in dye fluorescence (ex 520 nm, em 567 nm) at the end of the kinetics (2000 s); 50 mM HEPES, 100 mM KCl, 50 µM CaCl2, pH 7.05, 24–25 °C
[3] = target: T1, Human Aβ(1–42)-HiLyte^TM-Fluor555; experiment: other fluorescence titration; competition: 10 nM Aβ(1–42) HiLyte-Fluor555 preincubated 15 min with rising His6, then 5 nM CaM added; attenuation of the maximum fluorescence increase; 50 mM HEPES, 100 mM KCl, 50 µM CaCl2, pH 7.05, 24–25 °C

B1: hexa-histidine peptide (His6) (peptide)
peptide: HHHHHH
notes: hexa-histidine; source: bought: Quimigen
IC50 [1]: ~100 nM | EC50 [2]: 50 to 60 nM | IC50 [3]: ~1000 nM

Source: PMC10609148 (Molecules, 2023)
